Experiments:
[1] = target: Escherichia coli L-asparaginase II (AsnB) expressed in and secreted from Corynebacterium glutamicum (E. coli K-12) (UniProt P00805); assay: SEC; Superdex 200 Increase 10/300 GL on FPLC, 0.5 ml/min, 150 ug protein loaded; molecular mass from a calibration curve with carbonic anhydrase, ovalbumin, conalbumin and aldolase; proteins loaded individually
[2] = target: commercially available asparaginase Ec-AsnB (MEDAC, Germany) (E. coli) (UniProt P00805); assay: as above

Row | Substance | stoichiometry N [1] | stoichiometry N [2]
1 | Escherichia coli L-asparaginase II (AsnB) expressed in and secreted from Corynebacterium glutamicum (from UniProt P00805 23-348) (enzyme) | 4 | 
2 | commercially available asparaginase Ec-AsnB (MEDAC, Germany) (from UniProt P00805 23-348) (enzyme) |  | 4

— publication PMC12643800
